Measured values taken from patent US8722732B2, “Oligomer-calcimimetic conjugates and related compounds” (Nektar Therapeutics, priority 2009, dated 2014).
Read-outs that look alike come from different tables or passages of the source.

Tests used:
[1] = Hydrolysis of compounds in pH 7.4 PBS buffer at 37° C. (HPLC); type: physicochemical
Procedure: The solution was placed into ten different HPLC vials and the HPLC vials were put into a 37° C. incubator. The samples were analyzed by HPLC at different timepoints. When hydrolysis occurred, HPLC confirmed that cinacalcet was released unaltered.

[2] = system: plasma PTH (parathyroid hormone) levels; assay: In vivo screen, PTH-lowering effects in normal rats (plasma PTH by ELISA); design: species or system rat
Procedure: PEG-Cinacalcet calcimmetic effects were studied in PTH (parathyroid hormone)-lowering experiments in normal rats. Male SD rats (˜350 g) were IV dosed with different compounds at 1 mg/kg or orally (“PO”) cinacalcet at 10 mg/kg. Plasma samples were collected and prepared at different timepoints (up to 72 hours) after drug administration. The plasma PTH levels were quantified by ELISA.

[3] = rat, in vivo, 1 mg/kg; for AUCall / Clearance: iv
Procedure: (§1) Compound (15), Compound (20), Compound (16), Compound (21), Compound (24), Compound (25), Compound (28) and Compound (29), prepared in accordance with Examples, 5, 7, 6, 8, 9, 10, 11 and 12 respectively, were separately administered intravenously to four male rats to provide a cinacalcet equivalent dose of 1 mg/kg. Parent compound cinacalcet prepared in DMSO at 1 mg/kg was separately administrated intravenously to four male rats. For these cohorts, blood was collected at the following time points: 0 (predose), 2 minutes, 10 minutes, 1 hour, 2 hours, 4 hours, 8 hours, 24 hours, 48 hours and 72 hours following administration.

[4] = dog, in vivo
Procedure: (§2) Briefly, cinacalcet hydrochloride was administered orally to three male beagle dogs to provide a cinacalcet equivalent dose of 2.0 mg/kg. […] For both the cohorts, blood was collected at the following time points: 0 (predose); 10 min, 1, 2, 4, 8, 24, 48, 72, 120 and 144 h.

[5] = Hydrolysis / pharmacokinetics in an in vivo rat study (plasma concentration-time profiles); conditions: male, po, 10 mg/kg
Procedure: as §1

CYP2D6 = CYP2D6 (Homo sapiens, UniProt P10635); conditions: background statement; cited from earlier work
[6] = Hydrolysis / pharmacokinetics in an in vivo dog study; conditions: male, beagle, plasma, po, 10 mg/kg
Procedure: as §2

[7] = system: plasma PTH (parathyroid hormone) levels; assay: In vivo screen, rat chronic renal insufficiency (CRI) model, 5/6 nephrectomy; conditions: 5/6 Nx rats, 6-8 weeks post surgery
From the text: The approach set forth in Example 14 is repeated except rats were surgically modified to mimic chronic renal insufficiency through the total removal of one kidney and ⅔ of the other kidney (a 5/6 nephrectomy or “5/6Nx”). […] Parathyroid hormone levels in normal rats are around 100 pg/ml and in 5/6 Nx rats they increase to 500-1000 pg/ml.

Sequence of CYP2D6 (P10635 whole entry): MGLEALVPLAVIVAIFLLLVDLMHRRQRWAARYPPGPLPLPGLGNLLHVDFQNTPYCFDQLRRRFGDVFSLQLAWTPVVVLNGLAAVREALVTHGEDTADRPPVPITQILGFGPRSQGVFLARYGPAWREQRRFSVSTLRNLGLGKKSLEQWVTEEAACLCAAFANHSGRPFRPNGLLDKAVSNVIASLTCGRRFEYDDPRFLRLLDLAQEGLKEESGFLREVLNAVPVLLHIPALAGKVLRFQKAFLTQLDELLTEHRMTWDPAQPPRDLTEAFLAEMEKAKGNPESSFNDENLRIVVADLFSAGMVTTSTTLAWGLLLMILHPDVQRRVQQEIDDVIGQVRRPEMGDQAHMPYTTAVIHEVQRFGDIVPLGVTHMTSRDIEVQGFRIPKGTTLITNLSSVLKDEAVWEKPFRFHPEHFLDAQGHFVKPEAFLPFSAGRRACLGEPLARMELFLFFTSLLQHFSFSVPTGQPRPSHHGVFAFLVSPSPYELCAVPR

Compound	t1/2 in PBS [1]	PTH-lowering effect (in words) ([2]; IV, 1 mg/kg)	time at which animal PTH levels return to baseline ([2]; IV, 1 mg/kg)	cinacalcet release after intravenous administration (in words) [3]	time for which release of cinacalcet continues following intravenous administration [3]	other results
mPEG10k-L-valine-acyloxymethyl-carbamate-cinacalcet [Compound (24)]	~317 h	variable PTH-lowering effects	~24 h	relatively significant amounts of cinacalcet release	8 to 12 h	–
Four-arm-PEG20k-L-valine-acyloxymethyl-carbamate-cinacalcet [Compound (25)]	–	variable PTH-lowering effects	~24 h	relatively significant amounts of cinacalcet release	8 to 12 h	–
Four-arm-PEG20k-L-leucine-acyloxymethyl-carbamate-cinacalcet [Compound (21)]	–	significant PTH-lowering effects	–	–	–	AUCall [3]: 5730 ng·min/mL; Clearance [3]: 206 mL/min/kg
Four-arm-PEG30k-L-leucine-acyloxymethyl-carbamate-cinacalcet [Compound (31)]	–	–	–	–	–	Cmax versus cinacalcet (in words) [4]: blunted; half-life versus cinacalcet (in words) [4]: increased; time up to which therapeutically relevant levels of cinacalcet are released ([4]; iv): up to 72 hours; AUCall ([4]; iv, 1 mg/kg): 176 ng·h/mL; Clearance ([4]; iv, 1 mg/kg): 43.33 mL/min/kg; T1/2 ([4]; iv, 1 mg/kg): 0.432 h; Vz(F) ([4]; iv, 1 mg/kg): 97.2 L/kg
Four-arm-PEG20k-D-valine-acyloxymethyl-carbamate-cinacalcet [Compound (29)]	–	variable PTH-lowering effects	~24 h	relatively significant amounts of cinacalcet release	8 to 12 h	–
mPEG10k-D-valine-acyloxymethyl-carbamate-cinacalcet [Compound (28)]	~208 h	variable PTH-lowering effects	~24 h	relatively significant amounts of cinacalcet release	8 to 12 h	–
C[C@@H](NCCCc1cccc(C(F)(F)F)c1)c1cccc2ccccc12 [cinacalcet]	–	–	–	–	–	AUC [5]: 690 ng·h/mL; Cmax [5]: 97.4 ng/mL; half-life [5]: 2.98 h; CYP2D6 inhibition (CYP2D6): inhibitor of CYP2D6; PTH-lowering effect lasts up to ([2]; PO, 10 mg/kg): ~12 h; AUC [6]: 17.8 ng·h/mL; Cmax [6]: 6.01 ng/mL; Vd/F [6]: 294 L/kg; half-life [6]: 1.77 h
Four-arm-PEG20k-glycine-amide-cinacalcet [Compound (16)]	–	–	–	–	–	reduction of PTH levels (in words) [7]: PTH levels are not reduced as significantly as Compounds (25), (28), and (29)
mPEG10k-L-isoleucine-acyloxymethyl-carbamate-cinacalcet [(36)]	~470 h	–	–	–	–	–
mPEG10k-L-leucine-acyloxymethyl-carbamate-cinacalcet [Compound (20)]	~126 h	significant PTH-lowering effects	–	–	–	PTH-lowering effect lasts up to ([2]; IV, 1 mg/kg): 24 to 48 h; AUCall [3]: 11200 ng·min/mL; Clearance [3]: 100 mL/min/kg
